{"source": "paper doi:10.1101/2024.02.27.582283", "target": "SET-26::GFP, excessively sumoylated (ulp-2 loss of activity background) (C. elegans) (UniProt Q9U263)", "sequence (Q9U263 whole entry)": "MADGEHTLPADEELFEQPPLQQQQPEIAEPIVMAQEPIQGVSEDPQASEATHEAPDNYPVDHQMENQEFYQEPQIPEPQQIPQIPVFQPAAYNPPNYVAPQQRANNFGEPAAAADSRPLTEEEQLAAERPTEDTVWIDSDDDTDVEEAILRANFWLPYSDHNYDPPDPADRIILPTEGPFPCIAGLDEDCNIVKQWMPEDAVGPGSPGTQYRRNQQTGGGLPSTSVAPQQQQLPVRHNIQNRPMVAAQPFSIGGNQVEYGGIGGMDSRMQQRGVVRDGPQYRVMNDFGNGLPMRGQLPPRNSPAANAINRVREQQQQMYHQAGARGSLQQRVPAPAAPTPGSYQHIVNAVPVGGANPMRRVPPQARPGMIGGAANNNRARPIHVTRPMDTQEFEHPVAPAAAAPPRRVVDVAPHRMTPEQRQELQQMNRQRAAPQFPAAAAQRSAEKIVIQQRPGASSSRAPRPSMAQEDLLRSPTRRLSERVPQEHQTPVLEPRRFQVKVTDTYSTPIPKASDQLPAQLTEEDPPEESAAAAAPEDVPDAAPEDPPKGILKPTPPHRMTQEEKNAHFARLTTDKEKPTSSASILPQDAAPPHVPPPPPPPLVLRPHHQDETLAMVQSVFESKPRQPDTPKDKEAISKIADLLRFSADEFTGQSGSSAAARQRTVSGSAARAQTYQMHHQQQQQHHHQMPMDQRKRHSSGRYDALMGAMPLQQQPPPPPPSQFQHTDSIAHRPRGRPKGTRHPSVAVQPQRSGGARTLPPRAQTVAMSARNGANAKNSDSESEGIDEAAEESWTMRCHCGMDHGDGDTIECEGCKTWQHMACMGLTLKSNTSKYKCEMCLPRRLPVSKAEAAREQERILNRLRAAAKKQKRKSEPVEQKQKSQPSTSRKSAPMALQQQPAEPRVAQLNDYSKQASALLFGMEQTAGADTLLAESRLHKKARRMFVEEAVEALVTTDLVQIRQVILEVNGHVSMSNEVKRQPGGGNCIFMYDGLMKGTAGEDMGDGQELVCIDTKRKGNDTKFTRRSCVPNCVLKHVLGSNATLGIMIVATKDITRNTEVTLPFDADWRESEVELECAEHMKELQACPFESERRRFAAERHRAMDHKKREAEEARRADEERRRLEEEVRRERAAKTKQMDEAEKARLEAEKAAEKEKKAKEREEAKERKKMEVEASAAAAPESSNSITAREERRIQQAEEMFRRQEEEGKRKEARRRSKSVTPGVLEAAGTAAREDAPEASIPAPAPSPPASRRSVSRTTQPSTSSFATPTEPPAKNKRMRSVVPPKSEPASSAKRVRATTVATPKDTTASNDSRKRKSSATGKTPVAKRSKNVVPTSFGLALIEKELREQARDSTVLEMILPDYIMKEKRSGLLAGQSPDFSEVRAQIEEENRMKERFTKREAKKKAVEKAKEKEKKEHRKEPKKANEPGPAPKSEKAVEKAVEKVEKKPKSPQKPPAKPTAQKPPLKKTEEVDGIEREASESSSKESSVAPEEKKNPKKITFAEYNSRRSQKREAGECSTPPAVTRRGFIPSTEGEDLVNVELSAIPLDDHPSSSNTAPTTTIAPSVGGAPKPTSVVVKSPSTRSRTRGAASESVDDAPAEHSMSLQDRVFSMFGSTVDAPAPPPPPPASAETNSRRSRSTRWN", "test": "co-IP"}
{"substance": "Histone H3 trimethylated at lysine 4 (H3K4me3) (from UniProt P08898 1-136) (natural protein)", "values": [{"measurement": "reduction of binding compared with WT", "value": 55, "unit": "%"}]}
